From patent US20020177203A1, “Alpha2 subunit of prolyl 4-hydroxylase” (priority 1996, published 2002)

B1: mouse/human type 2 prolyl 4-hydroxylase tetramer (α22β2) (Mus musculus) (protein)
chain: WVQAEFFTSIGHMTDLIYAEKDLVQSLKEYILVEEAKLAKIKSWASKMEALTSRSAADPEGYLAHPVNAYKLVKRLNTDWPALGDLVLQDASAGFVANLSVQRQFFPTDEDESGAARALMRLQDTYKLDPDTISRGELPGTKYQAMLSVDDCFGLGRSAYNEGDYYHTVLWMEQVLKQLDAGEEATVTKSLVLDYLSYAVFQLGDLHRAVELTRRLLSLDPSHERAGGNLRYFERLLEEERGKSLSNQTDAGLATQENLYERPTDYLPERDVYESLCRGEGVKLTPRRQKKLFCRYHHGNRVPQLLIAPFKEEDEWDSPHIVRYYDVMSDEEIERIKEIAKPKLARATVRDPKTGVLTVASYRVSKSSWLEEDDDPVVARVNRRMQHITGLTVKTAELLQVANYGMGGQYEPHFDFSRSDDEDAFKRLGTGNRVATFLNYMSDVEAGGATVFPDLGAAIWPKKGTAVFWYNLLRSGEGDYRTRHAACPVLVGCKWVSNKWFHERGQEFLRPCGTTEVD
notes: the cDNA clones, considered in combination, cover the whole coding region of the mouse α2 subunit; made in house; host or cells: Spodoptera frugiperda Sf9 insect cells (baculovirus pVL1392 construct, co-infection with PDI/β virus); 0.1% Triton X-100 extract
B2: human type 1 prolyl 4-hydroxylase tetramer (α12β2) (Homo sapiens) (protein)
chain: HPGFFTSIGQMTDLIHTEKDLVTSLKDYIKAEEDKLEQIKKWAEKLDRLTSTATKDPEGFVGHPVNAFKLMKRLNTEWSELENLVLKDMSDGFISNLTIQRQYFPNDEDQVGAAKALLRLQDTYNLDTDTISKGNLPGVKHKSFLTAEDCFELGKVAYTEADYYHTELWMEQALRQLDEGEISTIDKVSVLDYLSYAVYQQGDLDKALLLTKKLLELDPEHQRANGNLKYFEYIMAKEKDVNKSASDDQSDQKTTPKKKGVAVDYLPERQKYEMLCRGEGIKMTPRRQKKLFCRYHDGNRNPKFILAPAKQEDEWDKPRIIRFHDIISDAEIEIVKDLAKPRLRRATISNPITGDLETVHYRISKSAWLSGYENPVVSRINMRIQDLTGLDVSTAEELQVANYGVGGQYEPHFDFARKDEPDAFKELGTGNRIATWLFYMSDVSAGGATVFPEVGASVWPKKGTAVFWYNLFASGEGDYSTRHAACPVLVGNKWVSNKWLHERGQEFRRPCTLSELE
notes: made in house; host or cells: Spodoptera frugiperda Sf9 insect cells (baculovirus co-infection); 0.1% Triton X-100 extract

Experiments:
[1] = substrate: O=C1O[C@H]([C@@H](O)CO)C(O)=C1O; experiment: Prolyl 4-hydroxylase activity assay (decarboxylation of 2-oxo[1-14C]glutarate), type 2 enzyme; type: biochemical; settings: other: α22β2 (mouse α2, human PDI/β), recombinant enzyme from insect cells; pH 7.8
[2] = substrate: O=C1O[C@H]([C@@H](O)CO)C(O)=C1O; experiment: Prolyl 4-hydroxylase activity assay (decarboxylation of 2-oxo[1-14C]glutarate), type 1 enzyme; type: biochemical, human; settings: other: α12β2, recombinant enzyme from insect cells, 0.1% Triton X-100 extract; pH 7.8

Row | Protein | Km [1] | Km [2]
1 | B1 | 340 µM | –
2 | B2 | – | 330 µM
